Key:
[1] = target: human CD33 R69G (human) (UniProt P20138); assay: SPR, Fab captured, 37C
[2] = target: human CD33 S128N (human) (UniProt P20138); assay: SPR, Fab captured, 37C
Sequence of human CD33 S128N (human) (P20138 18-259 S128N): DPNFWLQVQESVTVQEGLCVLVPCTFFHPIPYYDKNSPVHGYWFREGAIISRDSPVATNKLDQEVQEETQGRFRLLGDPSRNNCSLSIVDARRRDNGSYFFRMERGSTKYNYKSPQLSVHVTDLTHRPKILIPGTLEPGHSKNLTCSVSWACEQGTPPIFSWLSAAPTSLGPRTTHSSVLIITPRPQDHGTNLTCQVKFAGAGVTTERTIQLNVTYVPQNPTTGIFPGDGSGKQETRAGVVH

Sequence of human CD33 R69G (human) (P20138 18-259 R69G): as the sequence (P20138 18-259 S128N) above, with R52G, N111S counted along it

Row | Kd [1] | koff [1] | kon [1] | Kd [2] | koff [2] | kon [2] | Binder
1 | 2.94 nM | 0.00663 s⁻¹ | 2.27e+06 M⁻¹ s⁻¹ | – | – | – | ADI-11830 Fab (Fab, V domains shown) VH: EVQLVESGGGLVQPGGSLRLSCAASGFTFSSYWMSWVRQAPGKGLEWVANINTDGSEVYYVDSVKGRFTISRDNAKNSLYLQMNSLRAEDTAVYYCARDVGPGIAYQGHFDYWGQGTLVTVSS VL: DIQMTQSPSSLSASVGDRVTITCRASQVIYSYLNWYQQKPGKAPKLLIYAASSLKSGVPSRFSGSGSGTDFTLTISSLQPEDFATYYCQQVYDTPLTFGGGTKVEIK
2 | 3.74 nM | 0.00695 s⁻¹ | 1.86e+06 M⁻¹ s⁻¹ | 3.09 nM | 0.00649 s⁻¹ | 2.1e+06 M⁻¹ s⁻¹ | ADI-11825 Fab (Fab, V domains shown) VH: EVQLVESGGGLVQPGGSLRLSCAASGFTFGGYWMSWVRQAPGKGLEWVANINQDGSEEYYVDSVKGRFTISRDNAKNSLYLQMNSLRAEDTAVYYCAREANYYGNVGDDYWGQGTLVTVSS VL: DIQMTQSPSSLSASVGDRVTITCRASQSIYNYLNWYQQKPGKAPKLLIYAASNLHSGVPSRFSGSGSGTDFTLTISSLQPEDFATYYCQQAFHVPITFGGGTKVEIK
3 | 6.03 nM | 0.007 s⁻¹ | 1.16e+06 M⁻¹ s⁻¹ | 5.41 nM | 0.00742 s⁻¹ | 1.37e+06 M⁻¹ s⁻¹ | ADI-11828 Fab (Fab, V domains shown) VH: EVQLVESGGGLVQPGGSLRLSCAASGFTFSSYWMSWVRQAPGKGLEWVANINQDGSEVYYVDSVKGRFTISRDNAKNSLYLQMNSLRAEDTAVYYCARDVGPGIAYQGHFDYWGQGTLVTVSS VL: DIQMTQSPSSLSASVGDRVTITCRASQSIYYYLNWYQQKPGKAPKLLIYAASSRQSGVPSRFSGSGSGTDFTLTISSLQPEDFATYYCQQVYDTPLTFGGGTKVEIK
4 | 3.83 nM | 0.00723 s⁻¹ | 1.89e+06 M⁻¹ s⁻¹ | 2.65 nM | 0.00574 s⁻¹ | 2.17e+06 M⁻¹ s⁻¹ | ADI-11826 Fab (Fab, V domains shown) VH: EVQLVESGGGLVQPGGSLRLSCAASGFTFPGYWMSWVRQAPGKGLEWVANINQDGSEVYYVDSVKGRFTISRDNAKNSLYLQMNSLRAEDTAVYYCAREANYYGNVGDDYWGQGTLVTVSS VL: DIQMTQSPSSLSASVGDRVTITCRASQSIYNYLNWYQQKPGKAPKLLIYAASSTQSGVPSRFSGSGSGTDFTLTISSLQPEDFATYYCQQAFHVPITFGGGTKVEIK
5 | 0.67 nM | 0.00205 s⁻¹ | 3.07e+06 M⁻¹ s⁻¹ | – | – | – | ADI-11835 Fab (Fab, V domains shown) VH: QLQLQESGPGLVKPSETLSLTCTVSGGSISSTDYYWGWIRQPPGKGLEWIGSIGYSGTYYNPSLKSRVTISVDTSKNQFSLKLSSVTAADTAVYYCARETAHDVHGMDVWGQGTTVTVSS VL: EIVLTQSPATLSLSPGERATLSCRASHSVYSYLAWYQQKPGQAPRLLIYDASNRATGIPARFSGSGSGTDFTLTISSLEPEDFAVYYCQQYDNLPTFGGGTKVEIK
6 | – | – | 230000 M⁻¹ s⁻¹ | – | – | – | ADI-10177 Fab (Fab, V domains shown) VH: EVQLVESGGGLVQPGGSLRLSCAASGFTFSSYWMSWVRQAPGKGLEWVANIKQDGSEKYYVDSVKGRFTISRDNAKNSLYLQMNSLRAEDTAVYYCARPLNAGELDVWGQGTMVTVSS VL: DIQMTQSPSTLSASVGDRVTITCRASQSISSWLAWYQQKPGKAPKLLIYEASSLESGVPSRFSGSGSGTEFTLTISSLQPDDFATYYCQQLESYPLTFGGGTKVEIK
7 | 0.43 nM | 0.000259 s⁻¹ | 597000 M⁻¹ s⁻¹ | – | – | – | ADI-11807 Fab (Fab, V domains shown) VH: EVQLVESGGGLVQPGGSLRLSCAASGFTFGSYWMSWVRQAPGKGLEWVATIKQDGSEKSYVDSVKGRFTISRDNAKNSLYLQMNSLRAEDTAVYYCARPLNAGELDVWGQGTMVTVSS VL: DIQMTQSPSTLSASVGDRVTITCRASQSISSWLAWYQQKPGKAPKLLIYEASSLESGVPSRFSGSGSGTEFTLTISSLQPDDFATYYCQQSQSYPPITFGGGTKVEIK
8 | 4.34 nM | 0.0013 s⁻¹ | 300000 M⁻¹ s⁻¹ | – | – | – | ADI-11815 Fab (Fab, V domains shown) VH: QVQLVQSGAEVKKPGASVKVSCKASGYTFGTYYMHWVRQAPGQGLEWMGIINPSRGSTVYAQKFQGRVTMTRDTSTSTVYMELSSLRSEDTAVYYCARGAGYDDEDMDVWGKGTTVTVSS VL: DIQMTQSPSSVSASVGDRVTITCRASQGIDSWLAWYQQKPGKAPKLLIYAASSLQSGVPSRFSGSGSGTDFTLTISSLQPEDFATYYCQQAHSYPLTFGGGTKVEIK
9 | 6.74 nM | 0.00228 s⁻¹ | 338000 M⁻¹ s⁻¹ | 2.01 nM | 0.00112 s⁻¹ | 556000 M⁻¹ s⁻¹ | ADI-11812 Fab (Fab, V domains shown) VH: QVQLVQSGAEVKKPGASVKVSCKASGYTFEIYYMHWVRQAPGQGLEWMGIINPSSGSTVYAQKFQGRVTMTRDTSTSTVYMELSSLRSEDTAVYYCARGAGYDDEDMDVWGKGTTVTVSS VL: DIQMTQSPSSVSASVGDRVTITCRASQGIDSWLAWYQQKPGKAPKLLIYAASSLQSGVPSRFSGSGSGTDFTLTISSLQPEDFATYYCQQAHSYPLTFGGGTKVEIK
10 | 0.22 nM | 0.000179 s⁻¹ | 815000 M⁻¹ s⁻¹ | – | – | – | ADI-11809 Fab (Fab, V domains shown) VH: EVQLVESGGGLVQPGGSLRLSCAASGFTFPSYWMSWVRQAPGKGLEWVATIKRDGSEKGYVDSVKGRFTISRDNAKNSLYLQMNSLRAEDTAVYYCARPLNAGELDVWGQGTMVTVSS VL: DIQMTQSPSTLSASVGDRVTITCRASQSISSWLAWYQQKPGKAPKLLIYEASSLESGVPSRFSGSGSGTEFTLTISSLQPDDFATYYCQQSQSYPPITFGGGTKVEIK
11 | 48.9 nM | 0.0307 s⁻¹ | 629000 M⁻¹ s⁻¹ | 63.6 nM | 0.0385 s⁻¹ | 605000 M⁻¹ s⁻¹ | ADI-10161 Fab (Fab, V domains shown) VH: EVQLVESGGGLVQPGGSLRLSCAASGFTFSSYWMSWVRQAPGKGLEWVANINQDGSEKYYVDSVKGRFTISRDNAKNSLYLQMNSLRAEDTAVYYCAREGGDSWYHAFDIWGQGTMVTVSS VL: DIQMTQSPSSVSASVGDRVTITCRASQGISSWLAWYQQKPGKAPKLLIYAASNLQSGVPSRFSGSGSGTDFTLTISSLQPEDFATYYCQQKLSLPLTFGGGTKVEIK
12 | – | – | – | 29.5 nM | 0.0284 s⁻¹ | 963000 M⁻¹ s⁻¹ | ADI-11839 Fab (Fab, V domains shown) VH: QVQLVQSGAEVKKPGASVKVSCKASGYTFSNYYMHWVRQAPGQGLEWMGWINPFSGGTRYAQKFQGRVTMTRDTSTSTVYMELSSLRSEDTAVYYCARDVGSSAYYYMDVWGKGTTVTVSS VL: DIQMTQSPSSVSASVGDRVTITCEASKGISSWLAWYQQKPGKAPKLLIYAASDLQSGVPSRFSGSGSGTDFTLTISSLQPEDFATYYCQQAFLFPPTFGGGTKVEIK
13 | 5.68 nM | 0.00243 s⁻¹ | 426000 M⁻¹ s⁻¹ | – | – | – | ADI-10159 Fab (Fab, V domains shown) VH: EVQLVESGGGLVQPGGSLRLSCAASGFTFSSYGMSWVRQAPGKGLEWVANIKQDGSEKYYVDSVKGRFTISRDNAKNSLYLQMNSLRAEDTAVYYCAREGGPYYDSSGYFVYYGMDVWGQGTTVTVSS VL: DIQMTQSPSTLSASVGDRVTITCRASQSISSWLAWYQQKPGKAPKLLIYDASSLESGVPSRFSGSGSGTEFTLTISSLQPDDFATYYCQQYESFPTFGGGTKVEIK
14 | 0.22 nM | 0.000426 s⁻¹ | 1.98e+06 M⁻¹ s⁻¹ | – | – | – | ADI-11776 Fab (Fab, V domains shown) VH: EVQLLESGGGLVQPGGSLRLSCAASGFTFSKYTMSWVRQAPGKGLEWVSAIVGSGESTYFADSVKGRFTISRDNSKNTLYLQMNSLRAEDTAVYYCAREGGPYYDSSGYFVYYGMDVWGQGTTVTVSS VL: DIQMTQSPSTLSASVGDRVTITCRASQSISSWLAWYQQKPGKAPKLLIYKASSLESGVPSRFSGSGSGTEFTLTISSLQPDDFATYYCQQYDDLPTFGGGTKVEIK
15 | 0.09 nM | 0.000244 s⁻¹ | 2.78e+06 M⁻¹ s⁻¹ | – | – | – | ADI-11819 Fab (Fab, V domains shown) VH: EVQLVESGGGLVKPGGSLRLSCAASGFTFSSYAMSWVRQAPGKGLEWVSSISSSSEGIYYADSVKGRFTISRDNAKNSLYLQMNSLRAEDTAVYYCAREGGPYYDSSGYFVYYGMDVWGQGTTVTVSS VL: DIQMTQSPSTLSASVGDRVTITCRASNSISSWLAWYQQKPGKAPKLLIYEASSTKSGVPSRFSGSGSGTEFTLTISSLQPDDFATYYCQQYDDLPTFGGGTKVEIK
16 | 17.8 nM | 0.0287 s⁻¹ | 1.56e+06 M⁻¹ s⁻¹ | 163 nM | 0.00924 s⁻¹ | 56500 M⁻¹ s⁻¹ | ADI-10157 Fab (Fab, V domains shown) VH: QVQLQESGPGLVKPSETLSLTCTVSGGSISSYYWSWIRQPPGKGLEWIGSIYYSGSTNYNPSLKSRVTISVDTSKNQFSLKLSSVTAADTAVYYCARVGGVYSTIETYGMDVWGQGTTVTVSS VL: EIVMTQSPATLSVSPGERATLSCRASQSVSSNLAWYQQKPGQAPRLLIYGASTRATGIPARFSGSGSGTEFTLTISSLQSEDFAVYYCQQYTVYPPTFGGGTKVEIK
